# Laboratory results reported in patent publication US11497796B2, “Agents directed against a cis RGMa/neogenin interaction or lipid rafts and use of the same in methods of treatment” (UNIVERSITY HEALTH NETWORK, priority 2013, dated 2022).
# T1: 6FNIII-domain of Neogenin (His-6FNIII) (Gallus gallus, UniProt Q90610)
# T1 construct: His; made in house
# T1 sequence (Q90610 429-1036): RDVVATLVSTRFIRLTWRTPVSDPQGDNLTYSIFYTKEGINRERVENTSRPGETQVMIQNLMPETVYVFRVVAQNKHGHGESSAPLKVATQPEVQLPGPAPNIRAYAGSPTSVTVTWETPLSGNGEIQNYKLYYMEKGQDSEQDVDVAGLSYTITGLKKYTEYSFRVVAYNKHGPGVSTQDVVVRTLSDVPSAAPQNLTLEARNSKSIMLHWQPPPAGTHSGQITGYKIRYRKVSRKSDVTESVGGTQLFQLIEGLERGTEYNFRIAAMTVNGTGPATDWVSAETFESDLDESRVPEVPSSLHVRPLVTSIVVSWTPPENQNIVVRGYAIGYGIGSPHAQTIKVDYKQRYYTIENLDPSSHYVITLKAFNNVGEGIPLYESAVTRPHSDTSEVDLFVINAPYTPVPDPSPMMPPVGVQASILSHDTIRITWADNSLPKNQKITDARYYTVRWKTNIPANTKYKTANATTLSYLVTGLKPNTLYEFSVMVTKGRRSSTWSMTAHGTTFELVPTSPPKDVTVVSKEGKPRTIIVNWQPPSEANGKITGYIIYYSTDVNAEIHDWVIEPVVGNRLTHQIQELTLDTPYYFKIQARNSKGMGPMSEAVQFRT
# T2: 6FNIII-domain of Neogenin (Gallus gallus, UniProt Q90610)
# T2 construct: made in house
# T2 sequence (Q90610 429-1036): T1 sequence (Q90610 429-1036)
# T3: 4Ig-domain of Neogenin (Gallus gallus, UniProt Q90610)
# T3 construct: made in house
# T3 sequence (Q90610 1-383): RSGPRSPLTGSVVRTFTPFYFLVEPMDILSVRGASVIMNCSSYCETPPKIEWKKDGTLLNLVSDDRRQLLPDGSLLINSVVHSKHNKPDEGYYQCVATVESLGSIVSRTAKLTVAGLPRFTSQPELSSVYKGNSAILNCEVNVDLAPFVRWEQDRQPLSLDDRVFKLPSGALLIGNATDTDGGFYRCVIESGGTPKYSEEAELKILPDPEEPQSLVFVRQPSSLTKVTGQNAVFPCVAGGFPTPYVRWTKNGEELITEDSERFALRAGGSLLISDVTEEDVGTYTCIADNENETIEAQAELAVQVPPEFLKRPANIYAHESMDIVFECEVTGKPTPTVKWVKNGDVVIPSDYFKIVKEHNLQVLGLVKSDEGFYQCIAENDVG
# B1: N-RGMa: N-terminal RGMa isoform of the CNS (protein)
# chain: MQPPRERLVVTGRAGWMGMGRGAGRSALGLWPTLAFLLCSFPAAISPCKILKCNSEFWSATSSGSHAPASDDVPEFCAALRTYALCTRRTARTCRGDLAYHSAVHGIEDLMSQHNCSKDGPTSQPRVRTLPPAGDSQERSDSPEICHYEKSFHKHSAAPNYT
# modifications: Mouse N-RGMa
# notes: N-terminal RGMa isoform of the CNS
# B2: RGMaΔ: RGMaΔ was full-length RGMa (protein)
# chain: CKILKCNSEFWAATSGSHHLGAEETPEFCTALRAYAHCTRRTARTCRGDLAYHSAVHGIDDLMVQHNCSKDGPTSQPRLRTLPPGDSQERSDSPEICHYEKSFHKHSAAPNYTHCGLFGDPHLRTFTDTFQTCKVQGAWPLIDNNYLNVQVTNTPVLPGSSATATSKLTIIFKSFQECVEQKVYQAEMDELPAAFADGSKNGGDKHGANSLKITEKVSGQHIEIQAKYIGTTIVVRQVGRYLTFAVRMPEEVVNAVEDRDSQGLYLCLRGCPLNQQIDFQTFRLAQAAEGRARRKGPSLPAPPEAFTYESATAKCREKLPVEDLYFQSCVFDLLTTGDVNFMLAAYYAFEDVKMLHSNKDKLHLYERTRALAPGN
# Key:
# [1] = system: retinal explants (retinal ganglion cell neurites); test: Retinal explant neurite outgrowth on laminin or myelin; format: cell-based, chick; details: AY-9944 1 μM, BM15.766 4 μM, 18 hrs
# Procedure: (§1) Retinal explants outgrowth assay. Poly-L-Lysine (PLL; SIGMA; 10 μg/ml) coated glass coverslips were treated with Laminin (10 μg/ml; Invitrogen) and RGMa proteins (5 μg) and incubated for 3 hrs at room temperature. PLL treated coverslips were coated with myelin overnight (6 μg/cm2), followed by coating with Laminin. Temporal retinal explants were cultured on either myelin or protein-coated surfaces in DMEM F-12 media (2% chick serum, 10% FBS) for 18 h. To disrupt rafts, explants were pre-treated with 10 mM MβCD for 12 min or 2 U/ml CO for 1 h at 37° C., washed, and cultured on protein coated coverslips. Explants were then fixed with 4% PFA and stained with Alexa488-fluor-phalloidin (1:50; Molecular Probes). Fiber length was quantified using Image Pro 5.0.
# Specifically, retinal explants were prepared from E7 chick embryos, cultured on coverslips coated with on Laminin or myelin, and treated with control (DMSO) or AY-9944 (1 μM) or BM15.766 (4 μM), two inhibitors of cholesterol biosynthesis. After 18 hrs in culture, explants were fixed with 4% PFA and stained with Alexa488-Phalloidin. Neurites were measured using Cellsens software. Retinal explants were cultured on laminin (control) or myelin (the inhibitory compound of the CNS). On laminin, axon growth was normal compared to myelin because myelin inhibited outgrowth.
# photoreceptor cells = test: Photoreceptor survival in rd1 mice (retinitis pigmentosa model); format: in vivo, mouse
# Procedure: The rd1 mouse model is a model for human RP and carried a loss-of-function mutation in the gene encoding for the β-subunit of the rod photoreceptor cGMP phosphodiesterase-6.2. This loss-of-function mutation led to an accumulation of cGMP, which caused photoreceptor cell death.
# In these studies, intraocular injection of the 4Ig (2 μg/μl) peptide at P9 and P15 was performed and animals were sacrificed at P21 to examine cell survival. […] Injection of 4Ig increased outer nuclear layer (ONL) thickness to about 6 cells (FIG. 19). This measurement was the average thickness of the ONL.
# As described above, cholesterol depletion removes lipid rafts. Specifically, mice were treated with daily […] (IP) injections of MβCD from P9 to P21.
# To examine the effect of reducing cholesterol synthesis on cell survival, AY-9944 was examined in rd1 mice (FIGS. 20 and 21). Rd1 mice were treated using two intra-peritoneal injections of AY-9944, at P9 and P15 and sacrificed at P21.
# [2] = target: T1, 6FNIII-domain of Neogenin (His-6FNIII); test: Pull-down assay with peptide-coated beads; format: binding; details: Western blot with anti-His
# Procedure: (A) RGMa proteins were incubated on plates coated with 4Ig- or 6FNIII-AP. One C- and one N-RGMa domain (N-RGMa^77-113) interacted with 6FNIII. One N-RGMa domain (N-Raft) interacted with 4Ig. (B) Supernatants (Sup) from cells expressing His-6FNIII or His-4Ig, were pulled down (IP) with beads coated with N-Raft, N-RGMa^50-99, and N-inh. Western Blot was then performed with an anti-His antibody to reveal whether or not His-6FNIII or His-4Ig interacted with the coated beads. […] Data are average±SEM (n=3 independent experiments), *p<0.0001. Scale bar, 100 μm. (E) Chick brains were injected with control peptide (Ctrl; N-RGMa^50-99), 4Ig, N-Raft, or Noggin 1 day before preparing membrane fractionations. In control experiments, Neogenin localized to the Flotillin/RGMa-containing lipid raft fraction (as shown in solid lined boxes). 4Ig, N-Raft, or Noggin shifted Neogenin to heavy fractions.
# Proteins were coupled to activated CNBr Sepharose beads (Pharmacia) according to supplier instructions. Supernatants from transfected cells were added to coupled beads for 2 h at room temperature (RT). Beads were then washed 6× with PBS plus 0.02% Tween 20, and SDS loading buffer was added. Samples were boiled and subjected to Western blotting.
# [3] = system: temporal retinal explants (axonal outgrowth); test: Retinal explants outgrowth assay; format: cell-based, chick; details: for effect on axonal outgrowth when provided as growth substrate (in trans): protein as substrate
# Procedure: Poly-L-Lysine (SIGMA; 10 μg/ml) coated glass coverslips were treated with Laminin (Invitrogen; 10 μg/ml) and RGMa proteins (5 μg/ml) and incubated for 3 hours at room temperature. Temporal retinal explants were cultured on protein-coated surfaces for 18 hours. To disrupt the lipid rafts, explants were pretreated with 10 mM methyl-β-cyclodextrin (MβCD) for 12 minutes or 2 U/ml cholesterol oxidase (CO) for 1 hour at 37° C. Explants were then fixed with 4% paraformaldehyde (PFA) and stained with Alexa488-phalloidin. Fiber length was quantified using Image Pro 5.0. For immunolocalization, explants were treated with Cholera Toxin B-FITC (C1655; Sigma; 10 mg/mL) and patched, fixed and stained with Neogenin antibody. Retinal ganglion cells (RGCs) were electroporated with RGMa-His and cultured for 18 hours. The cells were fixed and stained with Neogenin and His-tag antibodies.
# as §1
# Statistical analysis of retinal outgrowth assays was performed using Student's two-tail t-test using Excel (Microsoft). Results were expressed as the mean±SEM (n=at least 3 independent experiments; 2 duplicates per independent experiment, >10 explants per duplicate).
# [4] = target: T2, 6FNIII-domain of Neogenin; test: ELISA / AP binding assay of RGMa peptides to Neogenin domains; details: Neogenin domains fused to AP
# Description: (§2) Specifically, the 4Ig-domain and 6FNIII-domain of Neogenin were each fused to alkaline phosphatase (AP). The 4Ig-domain and 6FNIII-domain of Neogenin were found in the extracellular portion of Neogenin. Accession No. AAC59662 (SEQ ID NO:1) was the amino acid sequence of Neogenin. The 4Ig-domain was amino acids 1 to 383 of Accession No. AAC59662 (SEQ ID NO:1). The 6FNIII-domain was amino acids 429 to 1036 of Accession No. AAC59662 (SEQ ID NO:1).
# (§3) The binding of these fusions to various RGMa peptides were analyzed in an ELISA assay (FIG. 2A).
# (§4) To determine if distinct N-terminal regions of RGMa bound the 4Ig- and 6FNIII-domains of Neogenin, peptides were generated that spanned the N-terminal region of RGMa. The amino acid sequence of RGMa was Accession No. NP_989868.1 (SEQ ID NO:6). These peptides were a peptide spanning amino acids 28-73 of RGMa (also referred to herein as “N-Raft”) and a peptide spanning amino acids 77-113 of RGMa (also referred to herein as “N-inh”). […] In a complementary experiment, in which the N-Raft and N-inh peptides of RGMa were fused with AP instead of the 4Ig- and 6FNIII-domains of Neogenin, N-Raft bound to the 4Ig-domain and not the 6FNIII-domain while N-inh bound to the 6FNIII-domain and not the 4Ig-domain (FIG. 9). Additionally, N-inh and N-Raft coated beads pulled down 6FNIII-domain and 4Ig-domain, respectively, which was consistent with the ELISA results described above (FIG. 2B).
# (§5) The assay was conducted in a 96-well microtiter plate (Corning Incorporated). The wells were coated with 100 μl (10 μg/mL) of Poly-L-Lysine at 4° C. overnight. Wells were then washed three times with 100 μl of PB ST (+0.02% Tween).
# (§6) 50 μl (2.5 μg/mL) of His-tagged: Full-length Neogenin; the 4Ig-domain of Neogenin; and 6FNIII-domain of Neogenin were coated onto each well for 1 hour at 37° C. Following three washes of 100 μl PBST, each well was then blocked with 300 μl of 3% BSA in PBST for 1 hour at 37° C.
# (§7) 50 μl (1.0 μg/mL) AP-tagged: N-RGMa (28-73); N-RGMa (28-54); N-RGMa (40-62); N-RGMa (54-73); N-RGMa (54-62) in 1% BSA+PBST was then added to each well and incubated at 37° C. for 1 hour. Each well was washed thoroughly three times with 100 μl PBST followed by subsequent equilibration of each well with Alkaline Phosphatase (AP) developing buffer (100 mM NaHCO3, 1 mM MgCl2). The reaction was developed using AP developing buffer supplemented with, p-nitrophenyl phosphate (pNPP) (Sigma-Aldrich) and allowed to develop until color development. The reaction was stopped with the addition of 50 μl (0.1M) NaOH. The absorbance of each reaction was measured using a microplate autoreader (BIO-TEK Instruments Inc.) at 405 nanometers (nm) wavelength.
# 4Ig-domain of Neogenin = target: T3, 4Ig-domain of Neogenin; test: as above; details: for interaction with the 4Ig-domain of Neogenin: ELISA, Neogenin domains fused to AP
# Description: as §2, §3, §4, §5, §6, §7
Molecule,outgrowth on laminin [1],outgrowth on myelin [1],interaction with the 6FNIII-domain of Neogenin [4],effect on axonal outgrowth when provided as growth substrate (in trans) [3],interaction with the 4Ig-domain of Neogenin (4Ig-domain of Neogenin),other results
Clc1ccccc1CNCC1CCC(CNCc2ccccc2Cl)CC1 (stereo not shown) [AY-9944],did not influence outgrowth on laminin,restored outgrowth on myelin,,,,"number of rods within the Outer Nuclear Layer (anti-Rhodopsin) (photoreceptor cells; injected at P9, P21): dramatic increase in the number of rods; photoreceptor survival (photoreceptor cells; two intra-peritoneal injections at P9 and P15, sacrificed at P21): promoted photoreceptor survival"
O=C(O)c1ccc(CCN2CCN(C/C=C/c3ccc(Cl)cc3)CC2)cc1 [BM15.766],did not influence outgrowth on laminin,restored outgrowth on myelin,,,,
N-inh: peptide spanning amino acids 77-113 of RGMa (GDLAYHSAVHGIDDLMVQHNCSKDGPTSQPRLRTLPP; left off: small tags and cut ends),,,interacted,,,"pull-down of 6FNIII-domain by peptide-coated beads [2]: pulled down; axonal growth on peptide as substrate ([3]; RGMa peptide as substrate, controls 238.1±9.3 μm): 88.1±13.3 μm"
B1,,,interacted,blocked axon growth,interacted,
B2,,,interacted,blocked axon growth,did not interact,binding to the 4Ig-domain of Neogenin (4Ig-domain of Neogenin; AP-tagged fragments 1.0 μg/mL on coated His-tagged 4Ig): did not bind
